Test results as given in PMC4580983 (Nature Communications, 2015).
One block for each binder: values may come before it.

Assays:
PF4 tetramer (human PF4) = biological target: T1, PF4 tetramer (human PF4) (human, UniProt P02776); assay: crystal structure; KKO-Fab (5 mg/ml) mixed with hPF4, on ice overnight; hanging drop, 16 °C, 7% PEG6000, 0.1 M Tris-HCl pH 7.8; 4.10 Å; settings: both partners purified
T1 construct: platelet factor 4 (PF4), human, wild type, same construct as m1, as the tetramer; Same protein as m1; also called hPF4 tetramer

[1] = biological target: T2, wild-type human platelet factor 4 (hPF4) (human, UniProt P02776); assay: ELISA; Immulon 4 HBX plates coated overnight with PF4 or PF4 mutant at 5 ug/ml, blocked with 1% BSA in PBS; antibody in solution; A405; settings: both partners purified
T2 construct: platelet factor 4 (PF4), human, wild type, expressed from plasmid pMT/BiP/V5-His; Probably the mature 70-residue PF4 behind the BiP signal of the vector; also called wtPF4; rPF4

[2] = biological target: the molecule itself; assay: crystal structure; hPF4 (7 mg/ml) with six-fold molar excess fondaparinux in PBS and 0.3 M NaCl; hanging drop, 16 °C, 2% PEG4000, 17% MPD, 0.1 M sodium acetate pH 5.6; 2.50 Å

binding result (PF4 tetramer (human PF4)): binds
B1: KKO-Fab (Fab fragment of the murine monoclonal HIT-like anti-PF4 antibody KKO) (Fab, V domains shown)
VH: VQLQQSGAELVKPGASVKLSCKASGYTFTNYFIYWVKQRPGQGLEWIGEINPRNGDTDFNEKFESRATLTVDKSSSTAYMQLSSLTSEDSAIYYCTRSPYGNNYGFTYWGQGTLVTVSA
VL: DIQMIQSQKFMSTSVGDRVTVTCKASQNVGTNVAWYQQKPGQSPNALIYSASYRYSGVPDRFTGSGSGTDFTLTITNVQSEDLADYFCQQYNSYPLTFGTGTKLDLK
notes: From murine IgG2b kappa KKO

binding result [1]: binds
B2: KKO (murine anti-human PF4 IgG2bκ monoclonal antibody) (antibody, V domains shown)
VH: VQLQQSGAELVKPGASVKLSCKASGYTFTNYFIYWVKQRPGQGLEWIGEINPRNGDTDFNEKFESRATLTVDKSSSTAYMQLSSLTSEDSAIYYCTRSPYGNNYGFTYWGQGTLVTVSA
VL: DIQMIQSQKFMSTSVGDRVTVTCKASQNVGTNVAWYQQKPGQSPNALIYSASYRYSGVPDRFTGSGSGTDFTLTITNVQSEDLADYFCQQYNSYPLTFGTGTKLDLK
notes: Fab part as the heavy chain of m3 (PDB 4R97, PDB 4R9Y); as the light chain of m3 (PDB 4R97, PDB 4R9Y); IgG2b kappa, whole IgG; also called HIT antibody KKO; HIT-like antibody KKO; source: purified from conditioned PFHM-II media (protein A-agarose); copies: 2 + 2

B3: wild-type human platelet factor 4 (hPF4) (natural protein)
chain: EAEEDGDLQCLCVKTTSQVRPRHITSLEVIKAGPHCPTAQLIATLKNGRKICLDLQAPLYKKIIKKLLES
notes: platelet factor 4 (PF4), human, wild type, expressed from plasmid pMT/BiP/V5-His; Probably the mature 70-residue PF4 behind the BiP signal of the vector; also called wtPF4; rPF4
stoichiometry N [2]: 4
